From patent US20050037448A1

Legend:
des-31,32-proinsulin [1] = target: des-31,32-proinsulin (UniProt P01308); test: sandwich immunoenzymatic C-peptide assay: PEP001 beads, goat polyclonal conjugate; no AC1D4 or BC9B6
des-64,65-proinsulin [2] = target: des-64,65-proinsulin (UniProt P01308); test: as above
human proinsulin (human) [3] = target: human proinsulin (human) (UniProt P01308); test: as above
human proinsulin (human) [4] = target: human proinsulin (human) (UniProt P01308); test: competitive RIA, PEP001-coated tubes, 125I-Tyr-C-peptide; serum E1 overloaded with 0.16 pmol/ml proinsulin; no AC1D4
human proinsulin (human) [5] = target: human proinsulin (human) (UniProt P01308); test: competitive RIA, PEP001-coated tubes, 125I-Tyr-C-peptide; serum E2 overloaded with 0.67 pmol/ml proinsulin; no AC1D4
des-31,32-proinsulin [6] = target: des-31,32-proinsulin (UniProt P01308); test: sandwich immunoenzymatic C-peptide assay: PEP001 beads, goat polyclonal anti-C-peptide-alkaline phosphatase; no BC9B6
des-64,65-proinsulin [7] = target: des-64,65-proinsulin (UniProt P01308); test: as above
human proinsulin (human) [8] = target: human proinsulin (human) (UniProt P01308); test: as above
des-31,32-proinsulin [9] = target: des-31,32-proinsulin (UniProt P01308); test: competitive RIA, PEP001-coated tubes, 125I-Tyr-C-peptide; serum E2 overloaded with 0.67 pmol/ml des-31,32-proinsulin; no AC1D4
des-64,65-proinsulin [10] = target: des-64,65-proinsulin (UniProt P01308); test: competitive RIA, PEP001-coated tubes, 125I-Tyr-C-peptide; serum E1 overloaded with 0.16 pmol/ml des-64,65-proinsulin; no AC1D4
des-64,65-proinsulin [11] = target: des-64,65-proinsulin (UniProt P01308); test: competitive RIA, PEP001-coated tubes, 125I-Tyr-C-peptide; serum E1 overloaded with 3.33 pmol/ml des-64,65-proinsulin; no AC1D4
des-64,65-proinsulin [12] = target: des-64,65-proinsulin (UniProt P01308); test: competitive RIA, PEP001-coated tubes, 125I-Tyr-C-peptide; serum E2 overloaded with 0.16 pmol/ml des-64,65-proinsulin; no AC1D4
des-64,65-proinsulin [13] = target: des-64,65-proinsulin (UniProt P01308); test: competitive RIA, PEP001-coated tubes, 125I-Tyr-C-peptide; serum E2 overloaded with 3.33 pmol/ml des-64,65-proinsulin; no AC1D4
human proinsulin (human) [14] = target: human proinsulin (human) (UniProt P01308); test: competitive RIA, PEP001-coated tubes, 125I-Tyr-C-peptide; serum E1 overloaded with 0.16 pmol/ml proinsulin; competitor AC1D4 20 µg/ml
human proinsulin (human) [15] = target: human proinsulin (human) (UniProt P01308); test: competitive RIA, PEP001-coated tubes, 125I-Tyr-C-peptide; serum E1 overloaded with 0.67 pmol/ml proinsulin; competitor AC1D4 20 µg/ml
human proinsulin (human) [16] = target: human proinsulin (human) (UniProt P01308); test: competitive RIA, PEP001-coated tubes, 125I-Tyr-C-peptide; serum E2 overloaded with 3.33 pmol/ml proinsulin; competitor AC1D4 20 µg/ml
des-31,32-proinsulin [17] = target: des-31,32-proinsulin (UniProt P01308); test: sandwich immunoenzymatic C-peptide assay: PEP001 beads, goat polyclonal anti-C-peptide-alkaline phosphatase; competitor AC1D4 20 µg/ml
des-64,65-proinsulin [18] = target: des-64,65-proinsulin (UniProt P01308); test: as above
human proinsulin (human) [19] = target: human proinsulin (human) (UniProt P01308); test: as above
des-31,32-proinsulin [20] = target: des-31,32-proinsulin (UniProt P01308); test: competitive RIA, PEP001-coated tubes, 125I-Tyr-C-peptide; serum E1 overloaded with 0.16 pmol/ml des-31,32-proinsulin; competitor AC1D4 20 µg/ml
des-31,32-proinsulin [21] = target: des-31,32-proinsulin (UniProt P01308); test: competitive RIA, PEP001-coated tubes, 125I-Tyr-C-peptide; serum E2 overloaded with 0.67 pmol/ml des-31,32-proinsulin; competitor AC1D4 20 µg/ml
des-64,65-proinsulin [22] = target: des-64,65-proinsulin (UniProt P01308); test: competitive RIA, PEP001-coated tubes, 125I-Tyr-C-peptide; serum E1 overloaded with 3.33 pmol/ml des-64,65-proinsulin; competitor AC1D4 20 µg/ml
des-64,65-proinsulin [23] = target: des-64,65-proinsulin (UniProt P01308); test: competitive RIA, PEP001-coated tubes, 125I-Tyr-C-peptide; serum E2 overloaded with 0.16 pmol/ml des-64,65-proinsulin; competitor AC1D4 20 µg/ml
des-31,32-proinsulin [24] = target: des-31,32-proinsulin (UniProt P01308); test: sandwich immunoenzymatic C-peptide assay: PEP001 beads, goat polyclonal conjugate; competitors AC1D4 + BC9B6 in equal quantities, 10 µg/ml
des-64,65-proinsulin [25] = target: des-64,65-proinsulin (UniProt P01308); test: as above
human proinsulin (human) [26] = target: human proinsulin (human) (UniProt P01308); test: as above
des-31,32-proinsulin [27] = target: des-31,32-proinsulin (UniProt P01308); test: sandwich immunoenzymatic C-peptide assay: PEP001 beads, goat polyclonal conjugate; competitors AC1D4 + BC9B6 in equal quantities, 40 µg/ml
des-64,65-proinsulin [28] = target: des-64,65-proinsulin (UniProt P01308); test: as above
human proinsulin (human) [29] = target: human proinsulin (human) (UniProt P01308); test: as above

“PEP001 anti-C-peptide monoclonal antibody” showed a percentage of cross reaction (des-31,32-proinsulin [1]) of 108%, a percentage of cross reaction (des-64,65-proinsulin [2]) of 94% and a percentage of cross reaction (human proinsulin (human) [3]) of 92%. For the same substance, the Increase after overload (%) (human proinsulin (human) [4]) was 15%, the Increase after overload (%) (human proinsulin (human) [5]) was 12% and the percentage of cross reaction (des-31,32-proinsulin [6]) was 108%. The percentage of cross reaction (des-64,65-proinsulin [7]) was 94%, the percentage of cross reaction (human proinsulin (human) [8]) was 92% and the Increase after overload (%) (des-31,32-proinsulin [9]) was 8%. For the same substance, the Increase after overload (%) (des-64,65-proinsulin [10]) was 6%, the Increase after overload (%) (des-64,65-proinsulin [11]) was 267% and the Increase after overload (%) (des-64,65-proinsulin [12]) was 0%. The Increase after overload (%) (des-64,65-proinsulin [13]) was 55%, the Increase after overload (%) (human proinsulin (human) [14]) was 0% and the Increase after overload (%) (human proinsulin (human) [15]) was 6%. It also gave an Increase after overload (%) (human proinsulin (human) [16]) of 0%, a percentage of cross reaction (des-31,32-proinsulin [17]) of 16% and a percentage of cross reaction (des-64,65-proinsulin [18]) of 85%. For the same substance, the percentage of cross reaction (human proinsulin (human) [19]) was 8%, the Increase after overload (%) (des-31,32-proinsulin [20]) was 5% and the Increase after overload (%) (des-31,32-proinsulin [21]) was 5%. It also gave an Increase after overload (%) (des-64,65-proinsulin [22]) of 242%, an Increase after overload (%) (des-64,65-proinsulin [23]) of 0% and a percentage of cross reaction (des-31,32-proinsulin [24]) of 30%. For the same substance, the percentage of cross reaction (des-64,65-proinsulin [25]) was 18%, the percentage of cross reaction (human proinsulin (human) [26]) was 4% and the percentage of cross reaction (des-31,32-proinsulin [27]) was 13%. It also gave a percentage of cross reaction (des-64,65-proinsulin [28]) of 7% and a percentage of cross reaction (human proinsulin (human) [29]) of 18%.
